We go through 46 molecules from patent US20200361992A1 (PROTAGONIST THERAPEUTICS, published 2020).

In the experiment the target is T1, human ferroportin (SLC40A1) fused with GFP, stably expressed in HEK293 cells (human, UniProt Q9NP59 1-571).
T1 sequence (looked up): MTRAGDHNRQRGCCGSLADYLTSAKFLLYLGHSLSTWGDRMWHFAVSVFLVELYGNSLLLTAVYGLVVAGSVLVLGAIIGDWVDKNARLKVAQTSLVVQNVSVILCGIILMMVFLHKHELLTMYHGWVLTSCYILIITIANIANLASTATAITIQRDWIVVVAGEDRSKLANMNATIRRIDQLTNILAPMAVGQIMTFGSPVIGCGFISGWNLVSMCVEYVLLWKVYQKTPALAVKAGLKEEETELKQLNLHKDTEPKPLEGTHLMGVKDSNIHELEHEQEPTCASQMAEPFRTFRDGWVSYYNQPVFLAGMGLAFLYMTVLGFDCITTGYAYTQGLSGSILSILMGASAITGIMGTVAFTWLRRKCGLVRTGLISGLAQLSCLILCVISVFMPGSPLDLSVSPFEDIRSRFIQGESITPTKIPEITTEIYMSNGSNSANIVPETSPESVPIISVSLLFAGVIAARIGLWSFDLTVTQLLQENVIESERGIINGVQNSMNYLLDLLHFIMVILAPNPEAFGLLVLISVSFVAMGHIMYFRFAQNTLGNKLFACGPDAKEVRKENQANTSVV
As to the kind of experiment: cell-based or functional assay.

Starred links: 1 amine or outer side, 2 acyl side, 3 side chain; linkers in the order of their positions; H or OH if unused. Positions of bridges follow the written chain, without caps; N, C: chain ends. Non-standard residues stand in square brackets, D forms with d. Groups on a side chain read outwards from the residue. Primed or numbered codes have the meaning given here. *: point of attachment. PEG4′ = bifunctional PEG linker with 4 polyethylene glycol units; PEG12 = NCCOCCOCCOCCOCCOCCOCCOCCOCCOCCOCCOCCOCCC(=O)O; Phe(4-tBu) = CC(C)(C)c1ccc(C[C@H](N)C(=O)O)cc1; Dip = N[C@H](C(=O)O)C(c1ccccc1)c1ccccc1; γGlu = O=C(O)[C@H](CCC(=O)[*:2])N[*:1]; Palmitoyl = CCCCCCCCCCCCCCCC(=O)*; β3hF = N[C@H](CC(=O)O)Cc1ccccc1; Isovaleryl = CC(C)CC(=O)*; hSer = N[C@@H](CCO)C(=O)O; Nle = CCCC[C@H](N)C(=O)O; PEG1′ = not defined here; PEG2′ = not defined here; PEG8′ = not defined here; dDap = NC[C@@H](N)C(=O)O; Dap = NC[C@H](N)C(=O)O; Npc = nipecotic acid; Ahx = NCCCCCC(=O)O

B1: Compd ID 157 (peptide)
peptide: DTHXPCIKXKKC
modifications: Isovaleric acid-DTH-[Dpa]-PCI-[(D)Lys]-[b-hPhe]-[Lys-Peg11*]-[(D)Lys]-C-NH2 (*PEG11-OMe)
As to B1, the “FPN IC50” value turned out to be 347 nM.

B2: Compd ID 158 (peptide)
peptide: DTHXPCIKXKKC
modifications: Isovaleric acid-DTH-[Dpa]-PCI-[(D)Lys]-[b-hPhe]-[Lys(IsoGlu-Palm)]-[(D)Lys]-C-NH2
With B2, the “FPN IC50” value stood at 6 nM. In the case of Isovaleryl-DTHFPCIQFK([PEG12-Palmitoyl])C-NH2 (disulfide 6-11 (inferred)) [Compd ID 13] it was 4 nM; in that of DTHXPCIKXKC (Isovaleric acid-DTH-[Dpa]-PCI-[(D)Lys]-[b-hPhe]-[Lys(dDap-Palm)]-C-NH2) [Compd ID 161], 10 nM. Under DTHXPCIKFKKC (Isovaleric_Acid-D-T-H-bhPhe-(D)Pro-C-I-(D)Lys-F-[Lys_Peg11_Palm]-(D)Lys-C-NH2) [Compd ID 168] stands 54 nM; under Isovaleryl-DTHFPCIK(Ac)FK([PEG12-Palmitoyl])C-NH2 (disulfide 6-11 (inferred)) [Compd ID 14], 3 nM; under Isovaleryl-DTHFPCI[dK]FK([PEG2′-γGlu-Palmitoyl])C-NH2 (disulfide 6-11 (inferred)) [Compd ID 26], 13 nM. Regarding Isovaleryl-DTHFPCI[dK]FK([PEG2′-Palmitoyl])C-NH2 (disulfide 6-11 (inferred)) [Compd ID 23], the “FPN IC50” value is 40 nM. In the case of DTHFPCIKFKPRSKGCK (Isovaleric acid-DTHFPCIKF-Lys[PEG11-Palm]-PRSKGCK-NH2) [Ref. Compd 1] it was 30 nM; in that of Isovaleryl-DTHFPCIKWK([PEG12-Palmitoyl])C-NH2 (disulfide 6-11 (inferred)) [Compd ID 20], 4 nM. Under DTHXPCIKXKKC (Isovaleric acid-DTH-[Dpa]-PCI-[(D)Lys]-[b-hPhe]-[Lys(Ahx-Palm)]-[(D)Lys]-C-NH2) [Compd ID 165] stands 6 nM; under Isovaleryl-DTHFPCI[dK]FK([PEG12-Palmitoyl])PRC-NH2 (disulfide 6-13 (inferred)) [Compd ID 71], 8 nM. In the case of DTHXPCIKXKKC (Isovaleric acid-DTH-[Dpa]-PCI-[(D)Lys]-[b-hPhe]-[Lys-Peg11]-[(D)Lys]-C-NH2) [Compd ID 154], the “FPN IC50” value came to 404 nM. Under Isovaleryl-DTHFPCI[dK]FK([PEG4′-Palmitoyl])C-NH2 (disulfide 6-11 (inferred)) [Compd ID 22] stands 17 nM; under Isovaleryl-DTHFPCI[dK]FK([PEG12-Palmitoyl])C-NH2 (cysteine pairing not given here) [Compd ID 68], 12 nM. In the case of Isovaleryl-DTH[Dip]PCII[β3hF]K([PEG12-Palmitoyl])[dK]C-NH2 (disulfide 6-12 (inferred)) [Compd ID 147], the “FPN IC50” value came out at 24 nM. Under Isovaleryl-DTHFPCI[dK]FK([PEG8′-Palmitoyl])C-NH2 (disulfide 6-11 (inferred)) [Compd ID 21] stands 30 nM; under Isovaleryl-DTH[Dip]PCI[dA][β3hF]K([PEG12-Palmitoyl])[dK]C-NH2 (disulfide 6-12 (inferred)) [Compd ID 146], 11 nM.

B3: Compd ID 166 (peptide)
peptide: DTHXPCIKXKKC
modifications: Isovaleric acid-DTH-[Dpa]-PCI-[(D)Lys-Peg11*]-[b-hPhe]-[Lys(Ahx-Palm)]-[(D)Lys-Peg11*]-C-NH2 (*PEG11-OMe)
B3: the “FPN IC50” value worked out at 6 nM. In the case of Isovaleryl-DTH[Dip]PCI[dK][β3hF][Dap]([dDap-Palmitoyl])C-NH2 (disulfide 6-11 (inferred)) [Compd ID 163] it was 7 nM. Under Isovaleryl-DTH[Dip]PCI[dK][β3hF][Dap]([dDap-Palmitoyl])C-NH2 (disulfide 6-11 (inferred)) [Compd ID 164] stands 6 nM; under Isovaleryl-DTHFPCI[Nle]FK([PEG12-Palmitoyl])C-NH2 (disulfide 6-11 (inferred)) [Compd ID 15], 2 nM; under DTHFPCIKFKPRSKGC (Isovaleric acid-DTHFPCIKF-Lys[PEG11-Palm]-PRSKGC-NH2) [Compd ID 3], 16 nM.

B4: Compd ID 153 (peptide)
peptide: DTHXPCIKXKKC
modifications: Isovaleric acid-DTH-[Dpa]-PCI-[(D)Lys-Peg11*]-[b-hPhe]-[Lys(Peg11-Palm)]-[(D)Lys-Peg11*]-C-NH2 (*PEG11-OMe)
Consider B4, for which the “FPN IC50” value was found to be 19 nM.

Turning to Isovaleryl-DTH[Dip]PCI[dK][β3hF][Dap]([Dap-Palmitoyl])C-NH2 (disulfide 6-11 (inferred)) [Compd ID 162], the “FPN IC50” value was 8 nM. For Isovaleryl-DTHFPCI[dK]FK(Palmitoyl)C-NH2 (disulfide 6-11 (inferred)) [Compd ID 30], the “FPN IC50” value came to 31 nM. Under Isovaleryl-DTH[Dip][Npc]CI[dK][Phe(4-tBu)]K([PEG12-Palmitoyl])C[dK]-NH2 (disulfide 6-11 (inferred)) [Compd ID 150] stands 22 nM.

B5: Compd ID 151 (peptide)
peptide: DTHXPCIKXKXX
modifications: Isovaleric acid-DTH-[Dpa]-PCI-[(D)Lys]-[b-hPhe]-[Lys(Ahx-Palm)]-[Dap]-[N-Me-Cys]-NH2
Turning to B5, the “FPN IC50” value amounted to 28.5 nM. With Isovaleryl-DTHFPCI[dK]FK([γGlu-PEG2′-Palmitoyl])C-NH2 (disulfide 6-11 (inferred)) [Compd ID 28], the “FPN IC50” value turned out to be 23 nM. Take Isovaleryl-DTH[Dip]PCI[β3hF]K([PEG12-Palmitoyl])[dK]C-NH2 (disulfide 6-11 (inferred)) [Compd ID 148]: the “FPN IC50” value is 12 nM. Turning to Isovaleryl-DTHFPCI[dK]FK([PEG1′-Palmitoyl])C-NH2 (disulfide 6-11 (inferred)) [Compd ID 24], the “FPN IC50” value is 17 nM. As to Isovaleryl-DTHFPCI[dK]FK([PEG12-Palmitoyl])PC-NH2 (disulfide 6-12 (inferred)) [Compd ID 70], the “FPN IC50” value was 5 nM. In the case of Isovaleryl-DTH[Dip][Npc]CI[dK][Phe(4-tBu)]K([PEG12-Palmitoyl])[dK]C-NH2 (disulfide 6-12 (inferred)) [Compd ID 149] it was 17 nM. In the case of DTHFPCIKFKC (Isovaleric acid-DTHFPC(SH)I-[Lys]-[Phe]-Lys[PEG11-Palm]-C(SH)-NH2) [Compd ID 69] it was 9 nM; in that of DTHFPCIKFKPC (Isovaleric acid-DTHFPC(SH)I-[Lys]-[Phe]-Lys[PEG11-Palm]-Pro-C(SH)-NH2) [Compd ID 67], 13 nM. As to DTHXPCIKXKKC (Isovaleric acid-DTH-[Dpa]-PCI-[(D)Lys]-[b-hPhe]-[Lys(Ac)]-[(D)Lys]-C-NH2) [Compd ID 152], the “FPN IC50” value amounted to 146 nM. Under Isovaleryl-DTHFPCI[dK]FK([Ahx-Palmitoyl])C-NH2 (disulfide 6-11 (inferred)) [Compd ID 25] stands 11 nM.

Regarding Isovaleryl-DTHFPCI[dK]FK([PEG2′-Ahx-Palmitoyl])C-NH2 (disulfide 6-11 (inferred)) [Compd ID 29], the “FPN IC50” value amounted to 30 nM.

For the molecule Isovaleryl-DTHFPCI[dK]FK([γGlu-Palmitoyl])C-NH2 (disulfide 6-11 (inferred)) [Compd ID 27], the “FPN IC50” value is 35 nM.

B6: Compd ID 159 (peptide)
peptide: DTHXPCIKXKKC
modifications: Isovaleric acid-DTH-[Dpa]-PCI-[(D)Lys-Ac]-[b-hPhe]-[Lys(Peg11-Palm)]-[(D)Lys-Ac]-C-NH2
On to B6, for which the “FPN IC50” value was 4 nM. Take DTHFPCIXFKC (Isovaleric acid-DTHFPCI-[Orn]-[Phe]-Lys[PEG11-Palm]-C-NH2) [Compd ID 11]: the “FPN IC50” value was 4 nM.

B7: Compd ID 156 (peptide)
peptide: DTHXPCIKXKKC
modifications: Isovaleric acid-DTH-[Dpa]-PCI-[(D)Lys]-[b-hPhe]-[Lys(Peg11-Lauryl)]-[(D)Lys]-C-NH2
As for B7, the “FPN IC50” value turned out to be 125 nM. For the molecule Isovaleryl-DTHFPCI[hSer]FK([PEG12-Palmitoyl])C-NH2 (disulfide 6-11 (inferred)) [Compd ID 12], the “FPN IC50” value was found to be 2 nM.

B8: Compd ID 155 (peptide)
peptide: DTHXPCIKXKKC
modifications: Isovaleric acid-DTH-[Dpa]-PCI-[(D)Lys]-[b-hPhe]-[Lys(Peg11-Octane)]-[(D)Lys]-C-NH2
As to B8, the “FPN IC50” value was determined as 279 nM. DTHXPCIKXKC (Isovaleric acid-DTH-[Dpa]-PCI-[(D)Lys]-[b-hPhe]-[Lys(Dap-Palm)]-C-NH2) [Compd ID 160]: the “FPN IC50” value stood at 4 nM. Consider DTHXPCIKFKKC (Isovaleric Acid-D-T-H-[Dpa]-(D)Pro-C-I-(D)Lys-F-[Lys_Peg11_Palm]-(D)Lys-C-NH2) [Compd ID 167], for which the “FPN IC50” value amounted to 81 nM.
